# Numbered stars: 1 amine (or outer) side, 2 acyl side, 3 side chain; on linkers, the order of the positions; unused ones are H or OH. Bridge positions count the residues as written; N and C are the ends. Square brackets hold non-standard residues; d marks the D form. Ends that are not written are not given here. Peptide text beside a SMILES is read from it. * marks the point of attachment. Biotin = O=C1N[C@H]2[C@H](CS[C@H]2CCCCC(=O)*)N1; X1 = O=C(CCCOCCOCCOCCOCCOCCN[*:1])[*:2]; Ethylenediamine = C(CN[*:2])N[*:1]; R8 = C=CCCCCCC[C@@](C)(N)C(=O)O; S5 = C=CCCC[C@](C)(N)C(=O)O; Pra = C#CC[C@H](N)C(=O)O
# Experiments:
# PfLDH [1] = molecular target: T1, PfLDH (Plasmodium falciparum, UniProt Q27743, A73S/D96L); assay: ELISA, biotinylated ligand on streptavidin plate, GST-PfLDH, antiGST-HRP detection; type: binding; conditions: 5 μM biotinylated ligand immobilized
# Method: (§1) Hit sequence No. 6 (HWSAN (SEQ ID NO:11)) was identified for further testing against the whole PfLDH or PvLDH proteins, results of which are presented in FIG. 10. […] A RCM cyclized version of the HWSAN (SEQ ID NO:11) peptide was synthesized. 5 μM of the biotinylated ligands were immobilized on a streptavidin plate, blocked with 5% milk and then treated with GST-PfLDH or GST-PvLDH proteins overnight. The binding was detected using antiGST-HRP antibody.
# To look at the selectivity of the ligand, a single point ELISA was done with the biotinylated ligand immobilized on the streptavidin plate and treating with 10 nM PfLDH or PvLDH protein in varying concentrations of human serum.
# PvLDH [2] = assay: ELISA, biotinylated ligand on streptavidin plate, GST-PvLDH, antiGST-HRP detection; type: binding; conditions: whole protein; 5 μM biotinylated ligand immobilized; FIG. 10
# Method: as §1
# PfHRP2 protein = PfHRP2 protein (Plasmodium falciparum, UniProt P05227); assay: biochemical
# Method: For the selectivity assay, the effect of binding of the ligand to the PfHRP2 protein with varying serum concentrations was determined.
# PfLDH [3] = molecular target: T1, PfLDH; assay: sandwich ELISA, NeutrAvidin-coated plates loaded with biotinylated ligand, pfLDH; type: binding; conditions: varying concentrations of pLDH in TBS
# Method: (§2) The structure of the resulting binary ligand hevwh-YLGHK based on the hit sequence No. 1 and representative data is presented in FIG. 11. […] Similar ELISA was performed with pLDHs and human LDH (hLDH) in the presence of 1 and 5% (v/v) human serum to confirm the selectivity and high activity of the binary ligand in complex mixtures.
# PvLDH [4] = assay: sandwich ELISA, NeutrAvidin-coated plates loaded with biotinylated ligand, pvLDH; type: binding; conditions: varying concentrations of pLDH in TBS
# Method: as §2
# Akt2 = Akt2 (Homo sapiens, UniProt P31751); assay: single point immunoassay, cyclic versus linear peptide (FIG. 6C); type: binding
# Sequence of Akt2 (P31751 whole entry, the tested form may be a part): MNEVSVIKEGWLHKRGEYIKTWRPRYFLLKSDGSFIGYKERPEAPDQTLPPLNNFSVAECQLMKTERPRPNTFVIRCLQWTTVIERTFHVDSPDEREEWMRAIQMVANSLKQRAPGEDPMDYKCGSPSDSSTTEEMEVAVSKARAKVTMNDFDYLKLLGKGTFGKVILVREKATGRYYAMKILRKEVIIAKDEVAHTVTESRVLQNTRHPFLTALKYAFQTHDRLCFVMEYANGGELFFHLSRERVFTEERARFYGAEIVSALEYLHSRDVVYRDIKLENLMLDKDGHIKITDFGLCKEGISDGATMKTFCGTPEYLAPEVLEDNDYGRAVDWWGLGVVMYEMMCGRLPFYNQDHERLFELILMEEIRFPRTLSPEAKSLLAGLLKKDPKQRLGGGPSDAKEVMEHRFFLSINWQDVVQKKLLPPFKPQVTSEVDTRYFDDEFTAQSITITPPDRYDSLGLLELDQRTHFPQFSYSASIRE
# Text: The peptide libraries of Example 2 were screened against the C-terminal epitope of Akt2 that contains residues 450-481 as illustrated in FIG. 5. Those residues include the phosphorylation site […] which, for the screen exemplified in this example, was phosphorylated. The peptide libraries were first screened against synthetic peptide that represented a scrambled epitope of Akt2 450-481 to eliminate those library elements that bind to closely related epitopes. The remaining library elements were screened against a synthetically prepared polypeptide fragment representing the phosphorylated Akt2 C-terminus. The libraries A, B, C (from example 2) were all screened. Library C yielded hits, and the sequence of those hits (determined by Edman degradation) is shown in Table 3 (Tz4 indicates 4-carbon linker to triazole).
# (§3) The structure of an isolated hit, with sequence of variable region YYTYT (SEQ ID NO:4) is illustrated in FIG. 6A. […] FIG. 6D is an affinity estimation from immunoassays in which the Cy(YYTYT (SEQ ID NO:4)-Tz4) peptide is compared against the corresponding linear peptide for capturing full-length Akt2 protein. […] Finally, FIG. 6E presents selectivity assay data showing the relative binding of the cyclic peptide to the Akt2 protein, relative to the closely related Akt1 and Akt3 proteins. The sequence of the C-terminal regions for all three proteins is given.
# full-length Akt2 protein = molecular target: T2, full-length Akt2 protein (Homo sapiens, UniProt P31751); assay: affinity estimation from immunoassays capturing full-length Akt2 protein (FIG. 6D); type: binding; conditions: cyclic vs linear peptide
# T2 construct: compared against the corresponding linear peptide for capturing full-length Akt2 protein
# T2 sequence (P31751 whole entry): as the sequence (P31751 whole entry, the tested form may be a part) above
# Text: as §3
compound,measurement,setting,value
"HWSAN ([Pra]HWSAN; triazole (positions not given here); also: triazole cyclisation, partner residue not given here) [HWSAN (SEQ ID NO:11)]","selectivity between the PfLDH and PvLDH, triazole-cyclized versus RCM cyclic peptide",PfLDH [1]; GST-PfLDH or GST-PvLDH overnight,higher selectivity
same,affinity for pfLDH,"PfLDH [1]; whole protein, FIG. 10",high affinity
same,affinity for pvLDH,PvLDH [2],high affinity
CC(C)C[C@@H]1NC(=O)[C@H](Cc2c[nH]c3ccccc23)NC(=O)[C@H](CCC(=O)O)NC(=O)[C@H]([C@@H](C)O)NC(=O)[C@H](CO)NC(=O)CNC(=O)[C@](C)(N)CCCCCC/C=C\CCC[C@@](C)(C(=O)NCCOCCOCCOCCOCCOCCCC(=O)NCCNC(=O)CCCC[C@@H]2SC[C@@H]3NC(=O)N[C@@H]32)NC1=O [biotinylated peptide] (H-[R8]GSTEWL[S5][X1]-{Ethylenediamine-Biotin}; staple (Z) 1-8),EC50,PfHRP2 protein,20 nM
"RCM cyclic peptide: RCM cyclized version of the HWSAN peptide, biotinylated ligand (staple (positions not given here); also: RCM cyclized, olefinic residues not placed, biotinylated, site not given here)","affinity for PfLDH, RCM cyclic versus triazole-cyclized peptide",PfLDH [1]; GST-PfLDH overnight,higher affinity
hevwh-YLGHK,affinity for pfLDH,PfLDH [3],high affinity
same,affinity for pvLDH,PvLDH [4],high affinity
Cy(YYTYT (SEQ ID NO:4)-Tz4) (triazole (positions not given here); also: Tz4: 4-carbon linker to triazole),binding relative to the linear variant,Akt2,improved binding
same,affinity relative to the corresponding linear peptide,full-length Akt2 protein,30 fold

# Source: patent publication US11365219B2, “Cyclic peptides as protein targeting agents” (California Institute of Technology, priority 2013, dated 2022)
